Laboratory results reported in patent US20230357348A1 (AstraZeneca / MedImmune, published 2023).
Starred links: 1 amine or outer side, 2 acyl side, 3 side chain; linkers in the order of their positions; H or OH if unused. Non-standard residues stand in square brackets, D forms with d. Groups on a side chain read outwards from the residue. No end group written: not given here. *: point of attachment. C20 diacid = O=C(O)CCCCCCCCCCCCCCCCCCC(=O)*; C18 diacid = O=C(O)CCCCCCCCCCCCCCCCC(=O)*; γGlu = O=C(O)[C@H](CCC(=O)[*:2])N[*:1]; αMeF = C[C@](N)(Cc1ccccc1)C(=O)O; AEEA = NCCOCCOCC(=O)O; Aib = CC(C)(N)C(=O)O

Tests used:
[1] = target: human GLP-1 receptor (hGLP-1R) (human, UniProt P43220 24-463); assay: cell-based or functional assay
[2] = target: human glucagon receptor (hGCGR) (human, UniProt P47871 26-477); assay: cell-based or functional assay
Sequence of human glucagon receptor (hGCGR) (P47871 26-477): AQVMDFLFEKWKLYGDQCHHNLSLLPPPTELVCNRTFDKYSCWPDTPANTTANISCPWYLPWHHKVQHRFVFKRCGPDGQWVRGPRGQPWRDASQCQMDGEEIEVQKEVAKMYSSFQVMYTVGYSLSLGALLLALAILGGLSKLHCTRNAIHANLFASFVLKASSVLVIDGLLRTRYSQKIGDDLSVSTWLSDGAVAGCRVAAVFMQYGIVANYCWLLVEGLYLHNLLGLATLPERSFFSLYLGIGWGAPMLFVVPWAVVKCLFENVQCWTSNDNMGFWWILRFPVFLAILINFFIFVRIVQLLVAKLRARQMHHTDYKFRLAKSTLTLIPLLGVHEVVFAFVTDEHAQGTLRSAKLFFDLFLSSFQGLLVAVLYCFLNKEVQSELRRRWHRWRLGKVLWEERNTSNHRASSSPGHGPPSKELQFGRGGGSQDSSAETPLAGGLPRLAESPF

Row | Binder | hGLP-1R EC50 (pM) [1] | hGluc-R EC50 (pM) [2]
1 | H[Aib]QGTFTSDVSK[αMeF]LDTK([AEEA-AEEA-γGlu-C20 diacid])RARDFVRWLL[Aib]TE-OH (N-terminus assumed; SMILES CC(C)C[C@H](NC(=O)[C@H](Cc1c[nH]c2ccccc12)NC(=O)[C@H](CCCNC(=N)N)NC(=O)[C@@H](NC(=O)[C@H](Cc1ccccc1)NC(=O)[C@H](CC(=O)O)NC(=O)[C@H](CCCNC(=N)N)NC(=O)[C@H](C)NC(=O)[C@H](CCCNC(=N)N)NC(=O)[C@H](CCCCNC(=O)COCCOCCNC(=O)COCCOCCNC(=O)CC[C@H](NC(=O)CCCCCCCCCCCCCCCCCCC(=O)O)C(=O)O)NC(=O)[C@@H](NC(=O)[C@H](CC(=O)O)NC(=O)[C@H](CC(C)C)NC(=O)[C@](C)(Cc1ccccc1)NC(=O)[C@H](CCCCN)NC(=O)[C@H](CO)NC(=O)[C@@H](NC(=O)[C@H](CC(=O)O)NC(=O)[C@H](CO)NC(=O)[C@@H](NC(=O)[C@H](Cc1ccccc1)NC(=O)[C@@H](NC(=O)CNC(=O)[C@H](CCC(N)=O)NC(=O)C(C)(C)NC(=O)[C@@H](N)Cc1c[nH]cn1)[C@@H](C)O)[C@@H](C)O)C(C)C)[C@@H](C)O)C(C)C)C(=O)N[C@@H](CC(C)C)C(=O)NC(C)(C)C(=O)N[C@H](C(=O)N[C@@H](CCC(=O)O)C(=O)O)[C@@H](C)O) [Peptide 492] | 212 pM | 374 pM
2 | H[Aib]QGTFTSDVSK[αMeF]LDTK([AEEA-AEEA-γGlu-C18 diacid])RARDFVRWLL[Aib]TE-OH (N-terminus assumed; SMILES CC(C)C[C@H](NC(=O)[C@H](Cc1c[nH]c2ccccc12)NC(=O)[C@H](CCCNC(=N)N)NC(=O)[C@@H](NC(=O)[C@H](Cc1ccccc1)NC(=O)[C@H](CC(=O)O)NC(=O)[C@H](CCCNC(=N)N)NC(=O)[C@H](C)NC(=O)[C@H](CCCNC(=N)N)NC(=O)[C@H](CCCCNC(=O)COCCOCCNC(=O)COCCOCCNC(=O)CC[C@H](NC(=O)CCCCCCCCCCCCCCCCC(=O)O)C(=O)O)NC(=O)[C@@H](NC(=O)[C@H](CC(=O)O)NC(=O)[C@H](CC(C)C)NC(=O)[C@](C)(Cc1ccccc1)NC(=O)[C@H](CCCCN)NC(=O)[C@H](CO)NC(=O)[C@@H](NC(=O)[C@H](CC(=O)O)NC(=O)[C@H](CO)NC(=O)[C@@H](NC(=O)[C@H](Cc1ccccc1)NC(=O)[C@@H](NC(=O)CNC(=O)[C@H](CCC(N)=O)NC(=O)C(C)(C)NC(=O)[C@@H](N)Cc1c[nH]cn1)[C@@H](C)O)[C@@H](C)O)C(C)C)[C@@H](C)O)C(C)C)C(=O)N[C@@H](CC(C)C)C(=O)NC(C)(C)C(=O)N[C@H](C(=O)N[C@@H](CCC(=O)O)C(=O)O)[C@@H](C)O) [Peptide 491] | 73.6 pM | 232 pM
3 | H[Aib]QGTFTSDVSK[αMeF]LDTK([AEEA-AEEA-γGlu-C18 diacid])RAQDFVRWLLR[Aib]K-OH (N-terminus assumed; SMILES CC(C)C[C@H](NC(=O)[C@H](Cc1c[nH]c2ccccc12)NC(=O)[C@H](CCCNC(=N)N)NC(=O)[C@@H](NC(=O)[C@H](Cc1ccccc1)NC(=O)[C@H](CC(=O)O)NC(=O)[C@H](CCC(N)=O)NC(=O)[C@H](C)NC(=O)[C@H](CCCNC(=N)N)NC(=O)[C@H](CCCCNC(=O)COCCOCCNC(=O)COCCOCCNC(=O)CC[C@H](NC(=O)CCCCCCCCCCCCCCCCC(=O)O)C(=O)O)NC(=O)[C@@H](NC(=O)[C@H](CC(=O)O)NC(=O)[C@H](CC(C)C)NC(=O)[C@](C)(Cc1ccccc1)NC(=O)[C@H](CCCCN)NC(=O)[C@H](CO)NC(=O)[C@@H](NC(=O)[C@H](CC(=O)O)NC(=O)[C@H](CO)NC(=O)[C@@H](NC(=O)[C@H](Cc1ccccc1)NC(=O)[C@@H](NC(=O)CNC(=O)[C@H](CCC(N)=O)NC(=O)C(C)(C)NC(=O)[C@@H](N)Cc1c[nH]cn1)[C@@H](C)O)[C@@H](C)O)C(C)C)[C@@H](C)O)C(C)C)C(=O)N[C@@H](CC(C)C)C(=O)N[C@@H](CCCNC(=N)N)C(=O)NC(C)(C)C(=O)N[C@@H](CCCCN)C(=O)O) [Peptide 493] | 23.4 pM | 166 pM
